The text below walks through data of patent US12098378B2, “Anti-fungal polypeptides” (priority 2020, dated 2024).

For assay [1], the system named is Botrytis cinerea. Briefly: Control of Botrytis cinerea on grapevine in field. In kind it is in vivo. Conditions: 250, 500, 750 g ai/ha, 4 applications; until 20 days after the last application (FIG. 19). On the procedure:
Four replicates of 10 vines (33.6 m^2 per plot) were treated with 8 l of spray solution, corresponding with a spray volume of […], according to local practice. The spray mix contained a concentration of active ingredient as described in Table 3. Four applications were done at specific phenological development stages of the vines: BBCH 77, BBCH 79, BBCH 81 and BBCH 85 (according to the standardised BBCH-scale). No artificial infection was performed, and first spray was placed preventative, based on forecasted disease pressure. The efficacy of 10G11 was compared to that of a non-treated control and the chemical reference Teldor (Fenhexamid). In addition, a chemical rotation of Switch (Fludioxonil+cyprodinil) and Teldor and a rotation of Switch and 10G11 was tested.
Disease severity is recorded as percent severity on a scale of 0-100% (PESSEV). Recording started when first symptoms appeared, just prior to the fourth application. Additional assessments were performed 13 and 20 days after the last application. At each assessment, the percentage of grape bunch surface affected by the disease was estimated on 100 randomly selected bunches per plot.

The subject of assay [2] is Botrytis cinerea R16. The experiment in a line: In vitro antifungal assay, IncuCyte Zoom monitoring of fungal growth from spore suspension. The format is cell-based. The conditions noted are these: confluence at mid log growth, four-parameter logistic regression (FIG. 1); read-out: IC50, concentration that inhibits 50% of spore germination and/or mycelial growth. How it is done:
Two-fold dilutions of purified VHH 10G11Q were prepared in 96-well microtiter plates. To 20 μl of these dilutions and to 20 μl of water as a control, 80 μl of fungal spore suspension (1 E+05 spores/ml in half strength potato dextrose broth (PDB)) were added, starting with a final VHH 10G11Q concentration of 10 μM. The test plates were incubated for 36 h at 25° C. using the IncuCyte Zoom live cell imaging system. All tests were performed in at least 2 replicates.
Two-fold dilutions of purified VHH 10G11Q and 41D01 were prepared in 96-well microtiter plates. To 20 μl of these dilutions and to 20 μl of water as a control, 80 μl of fungal spore suspension (1 E+05 spores/ml in half strength potato dextrose broth (PDB)) were added, starting with a final VHH 10G11Q concentration of 40 μM. The test plates were incubated for 48 h at 25° C. using the IncuCyte Zoom live cell imaging system. All tests were performed in at least 2 replicates.
Microplate graphs were generated using the time plot feature in the graph/export menu of the IncuCyte® Base Analysis Software. Raw data for confluence of treated samples at mid log growth were exported to GraphPad Prism 8 and plotted as a semi logarithmic function of the standard concentrations. IC50 values are extrapolated after fitting the data with a four-parameter logistic regression curve. Pathogen sensitivity is measured based on the IC50, which refers to the concentration (μM) that inhibits 50% of spore germination and/or mycelial growth.

B1: 10G11: VHH polypeptide, SEQ ID NO: 2, begins with a D residue (protein)
VHH: DVQLVESGGGLVQAGGSLRLSCAASRSIFSINAMDWYRQAPGKQREWVAGITRGGTTKYADSVKGRFTISRDNAKKKVYLQMNSLKPEDTAVYYCNVLRGEQPWTRDYWGQGTQVTVSS
Regarding B1, the “percent severity (PESSEV) of Botrytis cinerea on grape bunches” value in assay [1] was “clear and dose-related performance”. In addition, in assay [2], the IC50 amounted to 760 ± 100 nM.
